Reference: the DeepSol protein solubility set

Assay: soluble on expression in E. coli; label from the status in PepcDB or PDB records

| Sequence | soluble on expression in E. coli |
| --- | --- |
| MEHHHHHHATNLRGVMAALLTPFDQQQALDKASLRRLVQFNIQQGIDGLYVGGSTGEAFVQSLSEREQVLEIVAEEAKGKIKLIAHVGCVSTAESQQLAASAKRYGFDAVSAVTPFYYPFSFEEHCDHYRAIIDSADGLPMVVYNIPALSGVKLTLDQINTLVTLPGVGALKQTSGDLYQMEQIRREHPDLVLYNGYDNIFASGLLAGADGGIGSTYNIMGWRYQGIVKALKEGDIQTAQKLQTECNKVIDLLIKTGVFRGLKTVLHYMDVVSVPLCRKPFGPVDEKYLPELKALAQQLMQER | soluble |
| VAKATNAPLSVSKIDFKRGDDGSGRLILKFDGQGATPDLRTQGGTVLVDLGTAVLPTVLQRQINVVDFATPVQRIDAKPMGKGAQLVLSTKGAFESLAYQTGDEYVVEIVPRKGEAAM | not soluble |
| MGRKWNNIKEKKASKDANTSRIYAKFGREIYVAAKQGEPDPESNQALKVVLERAKTYSVPKNIIERAIEKAKGGAEENYDELRYEGFGPNGSMIIVDALTNNVNRTAPEVRAAFGKNGGNMGVSGSVAYMFDATAVIVVEGKTADEALEILMEADVDVRDILEEDDSAKSCYAEPDQFHAVQEAFKNAGVEEFTVAELQMLAQSEVTLPDDAKEQFEKLIDALEDLEDVQQVYHNVDLGELEHHHHHH | soluble |
| MGSDKIHHHHHHMEMKMQQIDILRKLSEVWRLFGDMPDDTTLSVDLAALYLGISVKTLARYRQSGGGPSYIQYQSEGSQARNQRVNYLLKDLRSWRDNHKVSNTMHAAQVRGLAFDSLLDFCKPQPFWQVTDKSSSRDKSKILSHALTIPDDDFKKKLLEPNADIVWISIEEALFNEWQTADERQKWNDIFKEFLNEIISASNAAQEKHILNAILK | not soluble |
| MDEYQQTIRALSDRIVVAQTPIRILDAVKWDDTVRKNFLAAKGKALPAVDRAYYENRPLGFDSVALKQEFQNIERDVTRQLGQFNPVGQIMRRMCREYRMVVRMLEARGTPDFGLISQELYGAASDAFHAGDPTLADLGLMLSDYLNNIAGRGDLKDEPKILTAKDAVSLLQSRLNRVFGEAEETIRVFESDGIVADAAAGADYIKIRTDAMFNERDVRALEVHEGLVHVGTTLNGQNQPICTFLSKGPPSSTVTQEGLAILMEVIAFASYPSRLRKLTNRTRAIHMAEQGADFLQVFEFYREQGFGMSESYGNASRVFRGSVPDGLPFTKDLSYLKGFIMVYNYIQLAVRKGKLEQVPLLFCGKTTLEDMRTLRQLVDEGLVVAPKYLPEQFRDMNALSAWMCFSNFLNHLSLDRIEADYSNILLEHHHHHH | soluble |
| MKPVKAKCEVCEHMFRVQMLTARLSNRVDKHYFICPSCKTEFISYYSNREMRQLQKEISNLYKGFRTCYTKEQAKVIQAKIDKKDLEFKWLRDILRTEIENNLPN | not soluble |
| MNIMITKKAFDWYKRELGLKPGDAIRFFARYGGCSTVQKGFSLGMAKDELVDKPAAQTTVDGITFFIEESDQWYFDGRDLTVDLDEKSDEPVFLVH | not soluble |
| MDGNAPEPRYWEKMRLVAEVLKAVEGPIYIATHVDPDGDAIGSSLGLYRALKALGKEAYWVADPPRFLRFLPKEEEYSDPVEKLPPGATLVALDSAEPSRVVGVPVEGFVINIDHHGTNPRFGHLHVVDPSKAATAQMVKDLIDLLGVEWTAEIATPVLTGILTDTGNFRFANTTPEVLRVAAELLGYGVKLAELTDRLQFRPPSYFRLMGQVLSTVAFHFGGLLVTAHLPEEAGAEEDSDDFVGLIRYVEGSVVSVFLRKREEGVKVSIRSRGGVSAQNIALKLGGGGHVPAAGATLKGLDLDQAYERVLEAVREELTRAGYLLEHHHHHH | not soluble |
| MYPNISDCGVIGDTRTAALVNSNGSIDYCSLPYFDSPTVFAALLDERKGGYFSLKPAEAFSSRREYLPDTCILCTSFTTRNGKAALYDFMPHQDDKTRERTQGIHRCIRVDEGRVKFTLTLKLLTFQQTGAIVAAATTSLPESIGGKRNWDYRFTWIRNASFTLKAFFALSHTSEADTFIRWLHDTYRKNGSRGFSQKLNAFVQRFDTEILDASLLIMPLVDFLPVTDQRIQGTIEACQTHLMDNGFIRRYRADDGLEEDEGGFLLCNFWMIECLALSGKSAEAEKLLGITMAAANDLGLFSEEYDPYSREMLGNFPQAFSHIGYINAAATLIDSKLPLANPLEHHHHHH | not soluble |
| MSLEQTVDIEVQGIRGFRAVRNTDLNVNLINKEEMDGSERYQHLVTKAVDRGLRVFGYYESSVRFERKQRQGKRDLLIAHVTPGEPTKIAGTDVQIEGEAAQDENFNALRKNLPKDGVLVEHQTYDDYKTAISRLALNRGYFDGNFKISRLEISPETHQAWWRMLFDSGVRYHYGNITFSHSQIRDDYLNNILNIKSGDPYLMNNLSDLTSDFPSSNWFSSVLVQPNVNHKSKTVDVEIILYPRKKNAMELGVGFSTDGGVHGQIGWTKPWINSRGHSLRSNLYLSAPKQTLEATYRMPLLKNPLNYYYDFAVGWEGEKENDTNTRVLTLSALRYWNNAHGWQYFGGLRMRYDSFTQADITDKTLLLYPTVGFTRTRLRGGSFATWGDVQKITFDLSKRIWLSESSFIKVQASSAWVRTYAENHRVVARAEIGYLHTKGIEKIPPTLRFFAGGDRSVRGYGYKKIAPKNRNGKLVGGSRLLTTSLEYQYQVYPNWWAATFADSGLAADNYTAKELRYGTGVGVRWASPVGAIKFDIATPIRDKDNSKNIQFYIGLGTEIEGHHHHHH | not soluble |
| EIHHRIKNNLQVICSLLSLEAERFSDEKMLETLKESQNRVASMALIHEELYKGDKNDTLDFAAYLRKLTADLFSSYNLGNDNISLKMDL | not soluble |
| MNTRTIYLAGGSFWGLEAYFQRIDGVVDAVSGYANGNTKNPSYEDVSYRHTGHAETVKVTYDADKLSLDDILQYFFRVVDPTSLNKQGNDTGTQYRSGVYYTDPAEKAVIAAALKREQQKYQLPLVVENEPLKNFYDAEEYHQDYLIKNPNGYCHIDIRKADEPLPGKTKTAPQGKGFDAATYKKPSDAELKRT | soluble |
| MTETELSERLRTWLSQDNERMRALELVLQCAQVHDMPQWCIAAGFVRNLVWDKLHGFDRQPLNDIDLIYYCPLDARPERDWAIEACLRACAPELPWSVKNQARMHLKNHDNPYQSSSDAMAYWPEMETAVGVSLNPTLKTSASVIENLQIVAPFGLASLLALTLTRNPRRSLAVFEQRIIAKGWLSQYPQLVLAN | soluble |
| MILNKKKLYFETQAFTDKLINEISINMSKRKELINCYDIEAYVKETENIDFFDYPFKKQSKKLIWGSVTKIGDVTMVATAQHLKIEIKNFTKMHEIIHHYFDYTTDMPNNEKSFDTLLIKKGYLPEDYPKEFRANKGAGMLLINKKALKYAFSTYDDLEKMASFFNVNDIVLKIRILDELIYSHNLSYKQANLIYNSYYFQQQTQLKEILLK | not soluble |
| MGSDKIHHHHHHSQRQMDIIGNNLANSSTLGYKSADTQFANMLSQSLTSGSGSFQVGQGVAISSVNTKFDQGSFESTGSVTDMAIDGEGFFPVKDKEGAIYYTRAGAFVIDKDGYLVDVNGYRVQGINLFSAPGDAELTDICLKNIQSAPSATKTFGIGVNLNDSEDAGTSFVVSQNVFDSKGAIHNLSLTFTKTEGDGYWGCQAKLDNVETINSSCCGIKFDESGNLKNTYLTSCSAGAVSGGGAITSTTVNKPGQLYLNGTIACTRGADADTWTISSSEYPNLEFSLGDLGNDDEIAIDLDGKGGTDITLALGAGFADLSSFDLTISQVESNAADVTFEFPGLANGADIGSGNALTWNLIGDDALQVTGYAATSVIKALEVDGYTSGVLKSLSVEKDGIISGIFTNGQTSDLGQVVLANFPNVGALRKIGSYFAETNFSGAAIINSPGTGGLGEIMSNSLEQSNTDVSMEFVNMINAQRAYQASARIITTSDEMLTELMNIKR | not soluble |
| MTMTETMNVDLLLEMESVHVKPFTEHDKVILRSYEAVVDGIASLIGPFCEIVLHSLEDLNTSAIKIANGENTGRQVGSPITDMALKMLRDIEGSERNFSRSYFTRAKGGVLMKSITVAIRNGENRVIGLLCINVNLDAPFSQVLKSFMPTQEAQEAASSVNFASDVEELVDQTVERTIEEINGDKSVSNNTKNRQIVMALFDKGIFDIKDAINRVADRLNISKHTVYLYIRQRKTEDDEK | not soluble |
| MNALSGLQVITRRPDKRSASGVTKKCRKSLKTAPDTKTVFKGSFASHYVDKSSQVNPGTHITVRGSIHGEVSIKKMLKGSRCRTAL | not soluble |
| MADRQLLHTAHIPVRWGDMDSYGHVNNTLYFQYLEEARVAWFETLGIDLEGAAEGPVVLQSLHTYLKPVVHPATVVVELYAGRLGTSSLVLEHRLHTLEDPQGTYGEGHCKLVWVRHAENRSTPVPDSIRAAIA | soluble |
| MGSDKIHHHHHHMENFVRNSKLNIEKEIKRIEQQPIALLERIKQIIDVIQTSLTLLKRAVAEYQFQNPEEEIQFFKVWKPQISGLLMFYIRLYQIEKNRVGKSLSAQCKYLKMELENIQKSFLNNSFYDYYRAGQTELDNQYFIRENYDILSDVHCHLLDRDSSFTTLHDSSVAMILANSHLIEYVSDEIDSLSDKLHLKFTSIVDSKLLQWTDSKVALVEFIYAIYAGKCFNNGNTSLKDIAFCCEILFNIEIGDFYRIFLEIRNRKKSRTQFLDKLKDKIQKMMEELDR | not soluble |
| VPEKFKLSTALMDVLGIEVETRPRIIAAIWHYVKARKLQNPNDPSFFNCDAALQKVFGEEKLKFTMVSQKISHHLSPPPP | soluble |
| MQRKGDTPATLDLFADQTPQPRRDEQIGPGSWLFSGFALPAMPTLLLALEQTLGHSPFRHMLTPGGLSMSAALSSCGPLGWITDRHGYRYSDVDPQTGQPWPAMPDAFMQLAQSAALAAGYRGFVPDACLINRYIPGAKMSLHQDKDEHDHRWPVVSVSLGIPAIFQFGGMQRSDKTRRISLFHGDVVVWGGEDRLRFHGILPIKQAEHPLLGEQRINLTFRKAGRDSLEHHHHHH | soluble |
| MQPQKNVTNKIAIHATTATVWDALVNPAKTKVYMFGCETVSDWKVGSELLWRGQHEGEDMVFVKGKILAIKPNKLLTYTVIDPFASYPDIPENYLNVTYKLEEQGPDTILTVTQDGFESAADGEKRYQDVNNKGEGWNPILVQIKALVESIQNLEHHHHHH | soluble |
| MKMINKLIVPVTASALLLGACGASATDSKENTLISSKAGDVTVADTMKKIGKDQIANASFTEMLNKILADKYKNKVNDKKIDEQIEKMQKQYGGKDKFEKALQQQGLTADKYKENLRTAAYHKELLSDKIKISDSEIKEDSKKASHILIKVKSKKSDKEGLDDKEAKQKAEEIQKEVSKDPSKFGEIAKKESMDTGSAKKDGELGYVLKGQTDKDFEKALFKLKDGEVSEVVKSSFGYHIIKADKPTDFNSEKQSLKEKLVDQKVQKNPKLLTDAYKDLLKEYDVDFKDRDIKSVVEDKILNPEKLKQGGAQGGQSGMSQ | soluble |
| GSHMSSGYPGVSWNKRMCAWLAFFYDGASRRSRTFHPKHFNMDKEKARLAAVEFMKTVENNGRKKLEPGGSQFIVTD | soluble |
| MNLKDMEQNSAKAVVLLKAMANERRLQILCMLHNQELSVGELCAKLQLSQSALSQHLAWLRRDGLVTTRKEAQTVYYTLKSEEVKAMIKLLHSLYCEE | soluble |
| MLGAIIGDIVGSVYEWNNIKTKDFPLFRKDCFFTDDTVMTCAVAEAIMNGGQKDDFIDAMKKYGRMYPNADYGARFNAWLNSDNREPYNSFGNGSAMRISPCAWIMDCGFYAKTGIWPSSRGLTSLSAEVTHNHPEGVKGAMATADAIFLCRFYFGGYCREYEQSINDNPTECKRRIKDYIEKEYDYNLSQTLDEIRPNYRFNETCQETVPQAIIAFLESRDFEDAIRNAISLGGDSDTLAAITCSIAEAAYGIPDWIKDKAYSYLDEPLKDVVRRWENRIKAY | not soluble |
